Source: PMC5729408, “Site-specific bioalkylation of rapamycin by the RapM 16-O-methyltransferase” (Chemical Science, 2015)

Tests used:
[1] = target: T1, hMAT2A (Homo sapiens, UniProt P31153, I322V); assay: HILIC HPLC of AdoMet analogue formation; type: biochemical; settings: ATP 1.5 mM, substrate 1.5 mM, MgCl2 3 mM, pH 7.4, 30 °C
T1 construct: gene MAT2A; pNIC28-Bsa4-hMAT2A, His-tagged, E. coli Rosetta 2, Ni-NTA; rows are the I322V mutant

[2] = substrate: C/C1=C\[C@@H](C)C(=O)C[C@@H]([C@H](C)C[C@@H]2CC[C@@H](O)[C@H](O)C2)OC(=O)[C@@H]2CCCCN2C(=O)C(=O)[C@]2(O)O[C@@H](CC[C@H]2C)C[C@H](O)/C(C)=C/C=C/C=C/[C@@H](C)C[C@@H](C)C(=O)[C@H](O)[C@@H]1O; assay: RP-HPLC methyltransferase assay; type: biochemical, Streptomyces hygroscopicus; settings: AdoMet 500 µM; BC231 2.5–250 µM

T1 sequence (P31153 whole entry I322V): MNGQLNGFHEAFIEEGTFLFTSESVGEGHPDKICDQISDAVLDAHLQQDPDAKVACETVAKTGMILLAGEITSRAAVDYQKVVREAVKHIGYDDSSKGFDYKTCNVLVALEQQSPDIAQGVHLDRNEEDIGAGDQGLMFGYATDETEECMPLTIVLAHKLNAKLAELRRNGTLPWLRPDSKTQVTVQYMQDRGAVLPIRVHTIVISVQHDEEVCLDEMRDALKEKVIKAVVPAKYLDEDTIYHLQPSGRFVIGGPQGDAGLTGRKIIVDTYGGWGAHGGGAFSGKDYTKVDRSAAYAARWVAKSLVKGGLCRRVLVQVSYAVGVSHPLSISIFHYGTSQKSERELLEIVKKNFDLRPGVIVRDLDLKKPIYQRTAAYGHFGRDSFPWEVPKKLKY

Molecule	HILIC HPLC of AdoMet analogue formation [1]	Km [2]	kcat [2]
C=CCSCC[C@H](N)C(=O)O [S-allyl-L-homocysteine]	evaluated with L-ethionine and S-allyl-L-homocysteine (Sahc) as substrates		
RapM (Streptomyces hygroscopicus) (protein, wild-type rapM in pET28a(+) (NdeI/XhoI), N-terminal His6 tag, E. coli BL21 (DE3), Ni-NTA) MIQPDVVTAFTAVRDINLDEPGTPQAETKAATFKSASSSIYDLAASMSAKGQLWNWGVHDSEFVAEIEARLPGFTEYGTDGFSEQLYYLALRDLPKGLESCDGRTVLEVGCGMGEGLNFLSRLVPTARMTGLDLAPKAIASATATLSRGDTLRFVQGDAEELPFEDSSVDVLVNIESSHTYPNLGRFLREAARALRRGGALSHIDVFTRQRLEAMRRITTEIPELKWVSDHDISDQVRAAVRRRMPPDSHLRSTLNKQRMNRLARTLALHSQITVFGGTFADYQPPASVKMLSRLGLVPPMDSLPMETYRHQIAVRV		48.9 ± 7.1 µM	1.47 ± 0.072 min^–1
